From paper PMC5502743
Where two headings read alike, the source gives them in different places.

Experiments:
Assay in all cases: single-molecule FRET imaging
[1] = biological target: Cy3B*/Cy7*-labeled β2Δ6-148C/266C (full-length, minimal cysteine β2 adrenergic receptor mutant) (UniProt P07550)
[2] = biological target: Cy3B*/Cy7*-labeled β2Δ6-148C/266C (full-length, minimal cysteine β2 adrenergic receptor mutant) (UniProt P07550); remark: listed apart in the source
[3] = biological target: Cy3B*/Cy7*-labeled β2Δ6-148C/266C (full-length, minimal cysteine β2 adrenergic receptor mutant) (UniProt P07550); remark: listed apart in the source
[4] = biological target: Cy3B*/Cy7*-labeled β2Δ6-148C/266C (full-length, minimal cysteine β2 adrenergic receptor mutant) (UniProt P07550); remark: listed apart in the source
[5] = biological target: Cy3B*/Cy7*-labeled β2Δ6-148C/266C (full-length, minimal cysteine β2 adrenergic receptor mutant) (UniProt P07550); remark: listed apart in the source
[6] = biological target: Cy3B*/Cy7*-labeled β2Δ6-148C/266C (full-length, minimal cysteine β2 adrenergic receptor mutant) (UniProt P07550); remark: listed apart in the source

For “Gs heterotrimer (Gαs, Gβ and Gγ) (from UniProt P63092 1-394; P62873 1-340; P59768 1-71) (complex)”, which k (high→low) (transition rate from high- to low-FRET states) [1] is on record?
Its k (high→low) (transition rate from high- to low-FRET states) is 1.1 s⁻¹.

And the k (high→low) (transition rate from high- to low-FRET states) [2]?
The k (high→low) (transition rate from high- to low-FRET states) was 0.7 s⁻¹.

What about the k (high→low) (transition rate from high- to low-FRET states) [3] of the same substance?
The k (high→low) (transition rate from high- to low-FRET states) was 0.7 s⁻¹.

What about the k (high→low) (transition rate from high- to low-FRET states) [4] of the same substance?
The k (high→low) (transition rate from high- to low-FRET states) was 0.7 s⁻¹.

What about the k (high→low) (transition rate from high- to low-FRET states) [5] of the same substance?
The k (high→low) (transition rate from high- to low-FRET states) was 0.6 s⁻¹.

And the percent Gs coupling [5]?
The percent Gs coupling was 5 to 20%.

What about the k (high→low) (transition rate from high- to low-FRET states) [6] of the same substance?
Its k (high→low) (transition rate from high- to low-FRET states) is 0.4 s⁻¹.
